Measurements as given in patent US20250262210A1 (TRUSTEES OF COLUMBIA UNIVERSITY IN THE CITY OF NEW YORK, published 2025).

Key:
Experiment in all cases: IP/MS, LZTR1 R810W-FLAG, U87
CRYBG1 = CRYBG1 (human, UniProt Q9Y4K1 1-2131, limits assumed)
In short: (§1)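 Extracted peptides in 3% acetonitrile/0.1% formic acid ran on a 50 cm C18 column into an Orbitrap Fusion, with MaxQuant identification and spectral counting.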

HECTD3 = target: T1, HECTD3 (human, UniProt Q5T447 2-861, limits assumed)
T1 sequence (looked up): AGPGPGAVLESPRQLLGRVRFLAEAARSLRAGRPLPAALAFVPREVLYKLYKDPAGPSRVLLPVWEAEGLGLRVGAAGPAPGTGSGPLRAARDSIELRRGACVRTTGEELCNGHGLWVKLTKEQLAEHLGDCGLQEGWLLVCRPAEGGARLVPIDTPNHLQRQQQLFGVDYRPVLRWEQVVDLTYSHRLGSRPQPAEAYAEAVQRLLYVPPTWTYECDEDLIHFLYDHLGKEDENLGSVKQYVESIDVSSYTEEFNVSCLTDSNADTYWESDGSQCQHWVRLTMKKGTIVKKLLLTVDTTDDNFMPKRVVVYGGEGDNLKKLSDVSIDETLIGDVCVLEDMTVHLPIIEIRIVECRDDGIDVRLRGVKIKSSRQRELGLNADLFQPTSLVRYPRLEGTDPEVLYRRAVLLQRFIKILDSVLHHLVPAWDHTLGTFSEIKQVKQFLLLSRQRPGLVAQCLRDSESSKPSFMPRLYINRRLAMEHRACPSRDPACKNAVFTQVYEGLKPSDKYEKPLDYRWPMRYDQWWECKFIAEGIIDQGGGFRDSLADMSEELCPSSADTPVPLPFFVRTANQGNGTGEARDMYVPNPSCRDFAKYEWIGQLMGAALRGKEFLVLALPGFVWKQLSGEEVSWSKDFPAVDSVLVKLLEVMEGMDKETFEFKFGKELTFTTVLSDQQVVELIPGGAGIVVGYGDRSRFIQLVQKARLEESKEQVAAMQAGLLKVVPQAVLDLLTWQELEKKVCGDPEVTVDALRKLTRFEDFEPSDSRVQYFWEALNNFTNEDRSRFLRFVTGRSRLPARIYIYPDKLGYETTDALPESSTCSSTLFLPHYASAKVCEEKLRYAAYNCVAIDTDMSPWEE
In short: as §1

PPFIBP1 = target: T2, PPFIBP1 (human, UniProt Q86W92 1-1011, limits assumed)
T2 sequence (looked up): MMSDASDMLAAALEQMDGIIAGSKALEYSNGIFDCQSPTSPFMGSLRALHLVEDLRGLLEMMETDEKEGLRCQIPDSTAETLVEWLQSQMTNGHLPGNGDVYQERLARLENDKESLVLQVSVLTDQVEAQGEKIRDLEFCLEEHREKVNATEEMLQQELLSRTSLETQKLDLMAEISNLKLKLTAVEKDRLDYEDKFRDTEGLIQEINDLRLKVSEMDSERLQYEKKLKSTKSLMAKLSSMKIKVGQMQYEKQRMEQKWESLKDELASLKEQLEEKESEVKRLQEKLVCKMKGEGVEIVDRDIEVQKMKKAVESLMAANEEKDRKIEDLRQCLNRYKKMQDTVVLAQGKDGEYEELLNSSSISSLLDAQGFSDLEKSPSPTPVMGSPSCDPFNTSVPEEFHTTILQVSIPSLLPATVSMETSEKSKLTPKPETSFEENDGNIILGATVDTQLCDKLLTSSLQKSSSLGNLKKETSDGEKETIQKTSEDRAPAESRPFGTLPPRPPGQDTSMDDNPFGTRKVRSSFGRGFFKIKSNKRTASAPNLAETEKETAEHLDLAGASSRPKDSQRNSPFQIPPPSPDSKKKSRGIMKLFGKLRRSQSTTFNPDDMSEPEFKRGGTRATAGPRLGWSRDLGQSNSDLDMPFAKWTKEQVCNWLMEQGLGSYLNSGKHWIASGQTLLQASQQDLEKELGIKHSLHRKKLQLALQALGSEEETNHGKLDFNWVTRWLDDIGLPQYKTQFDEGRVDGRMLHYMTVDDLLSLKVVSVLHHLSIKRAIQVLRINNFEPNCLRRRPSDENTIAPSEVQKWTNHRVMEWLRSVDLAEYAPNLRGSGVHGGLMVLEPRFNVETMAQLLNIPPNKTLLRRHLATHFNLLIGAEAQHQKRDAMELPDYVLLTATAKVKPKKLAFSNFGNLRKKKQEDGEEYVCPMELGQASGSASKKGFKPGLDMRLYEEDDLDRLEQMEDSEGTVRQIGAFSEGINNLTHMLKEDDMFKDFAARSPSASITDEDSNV
In short: as §1

Measured: binding result

CRYBG1, sequence (Q9Y4K1 whole entry, the tested form may be a part): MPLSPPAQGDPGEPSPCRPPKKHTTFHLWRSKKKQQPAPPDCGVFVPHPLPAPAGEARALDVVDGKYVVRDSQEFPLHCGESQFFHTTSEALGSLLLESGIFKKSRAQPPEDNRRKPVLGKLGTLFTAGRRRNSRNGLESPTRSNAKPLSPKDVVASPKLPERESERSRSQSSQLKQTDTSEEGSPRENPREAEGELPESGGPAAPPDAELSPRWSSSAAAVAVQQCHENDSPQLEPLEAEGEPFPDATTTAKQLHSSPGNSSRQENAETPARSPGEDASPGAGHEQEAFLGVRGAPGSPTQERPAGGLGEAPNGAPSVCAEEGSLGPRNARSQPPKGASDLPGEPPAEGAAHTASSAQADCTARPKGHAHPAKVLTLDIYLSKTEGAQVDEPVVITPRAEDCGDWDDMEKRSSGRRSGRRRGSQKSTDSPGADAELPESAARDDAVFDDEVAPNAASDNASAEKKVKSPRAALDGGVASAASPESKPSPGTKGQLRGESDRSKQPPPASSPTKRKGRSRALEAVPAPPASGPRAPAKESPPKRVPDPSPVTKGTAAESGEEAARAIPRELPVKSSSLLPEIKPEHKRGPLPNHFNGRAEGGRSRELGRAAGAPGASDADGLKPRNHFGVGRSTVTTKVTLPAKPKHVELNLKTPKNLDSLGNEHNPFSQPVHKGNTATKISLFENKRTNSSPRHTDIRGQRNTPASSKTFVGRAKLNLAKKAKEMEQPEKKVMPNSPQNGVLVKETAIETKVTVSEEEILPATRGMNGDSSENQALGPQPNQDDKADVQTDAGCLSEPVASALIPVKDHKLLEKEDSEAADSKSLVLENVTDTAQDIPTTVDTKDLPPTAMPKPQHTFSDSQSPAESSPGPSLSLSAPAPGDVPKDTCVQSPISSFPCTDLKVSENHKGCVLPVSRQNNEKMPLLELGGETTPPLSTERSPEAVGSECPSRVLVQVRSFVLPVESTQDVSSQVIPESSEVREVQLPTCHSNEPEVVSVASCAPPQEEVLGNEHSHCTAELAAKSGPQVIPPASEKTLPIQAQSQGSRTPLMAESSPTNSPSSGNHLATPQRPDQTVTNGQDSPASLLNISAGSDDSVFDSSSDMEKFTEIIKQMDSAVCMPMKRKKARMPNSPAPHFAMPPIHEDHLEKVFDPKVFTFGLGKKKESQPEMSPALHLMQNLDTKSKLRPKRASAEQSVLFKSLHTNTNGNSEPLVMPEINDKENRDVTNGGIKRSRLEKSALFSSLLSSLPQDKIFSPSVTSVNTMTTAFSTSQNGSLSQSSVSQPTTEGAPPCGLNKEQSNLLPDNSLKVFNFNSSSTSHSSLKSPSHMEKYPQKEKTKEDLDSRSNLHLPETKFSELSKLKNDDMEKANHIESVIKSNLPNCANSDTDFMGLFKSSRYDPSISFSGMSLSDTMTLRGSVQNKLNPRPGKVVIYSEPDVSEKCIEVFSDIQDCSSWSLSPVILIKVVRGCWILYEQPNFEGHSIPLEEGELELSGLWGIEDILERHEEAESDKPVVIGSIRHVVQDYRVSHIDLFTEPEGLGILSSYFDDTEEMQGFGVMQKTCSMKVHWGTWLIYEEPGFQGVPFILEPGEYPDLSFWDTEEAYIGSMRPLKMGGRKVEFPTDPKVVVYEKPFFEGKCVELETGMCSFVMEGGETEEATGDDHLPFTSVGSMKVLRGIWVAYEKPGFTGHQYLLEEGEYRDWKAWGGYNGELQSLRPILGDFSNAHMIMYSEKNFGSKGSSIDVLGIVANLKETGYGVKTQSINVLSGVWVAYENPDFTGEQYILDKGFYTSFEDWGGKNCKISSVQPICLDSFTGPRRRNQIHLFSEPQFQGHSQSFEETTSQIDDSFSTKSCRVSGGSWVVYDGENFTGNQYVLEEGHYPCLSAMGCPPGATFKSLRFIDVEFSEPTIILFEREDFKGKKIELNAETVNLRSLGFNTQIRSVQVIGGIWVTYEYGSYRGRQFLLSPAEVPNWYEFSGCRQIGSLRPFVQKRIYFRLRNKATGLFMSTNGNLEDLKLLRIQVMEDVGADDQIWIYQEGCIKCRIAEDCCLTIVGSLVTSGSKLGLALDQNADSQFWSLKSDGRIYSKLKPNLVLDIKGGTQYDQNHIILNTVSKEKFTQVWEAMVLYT

B1: LZTR1 R810W-FLAG (other, human, UniProt Q8N653 1-840, looked up)
chain: MAGPGSTGGQIGAAALAGGARSKVAPSVDFDHSCSDSVEYLTLNFGPFETVHRWRRLPPCDEFVGARRSKHTVVAYKDAIYVFGGDNGKTMLNDLLRFDVKDCSWCRAFTTGTPPAPRYHHSAVVYGSSMFVFGGYTGDIYSNSNLKNKNDLFEYKFATGQWTEWKIEGRLPVARSAHGATVYSDKLWIFAGYDGNARLNDMWTIGLQDRELTCWEEVAQSGEIPPSCCNFPVAVCRDKMFVFSGQSGAKITNNLFQFEFKDKTWTRIPTEHLLRGSPPPPQRRYGHTMVAFDRHLYVFGGAADNTLPNELHCYDVDFQTWEVVQPSSDSEVGGAEVPERACASEEVPTLTYEERVGFKKSRDVFGLDFGTTSAKQPTQPASELPSGRLFHAAAVISDAMYIFGGTVDNNIRSGEMYRFQFSCYPKCTLHEDYGRLWESRQFCDVEFVLGEKEECVQGHVAIVTARSRWLRRKITQARERLAQKLEQEAAPVPREAPGVAAGGARPPLLHVAIREAEARPFEVLMQFLYTDKIKYPRKGHVEDVLLIMDVYKLALSFQLCRLEQLCRQYIEASVDLQNVLVVCESAARLQLSQLKEHCLNFVVKESHFNQVIMMKEFERLSSPLIVEIVRRKQQPPPRTPLDQPVDIGTSLIQDMKAYLEGAGAEFCDITLLLDGHPRPAHKAILAARSSYFEAMFRSFMPEDGQVNISIGEMVPSRQAFESMLRYIYYGEVNMPPEDSLYLFAAPYYYGFYNNRLQAYCKQNLEMNVTVQNVLQILEAADKTQALDMKRHCLHIIVHQFTKVSKLPTLWSLSQQLLLDIIDSLASHISDKQCAELGADI
notes: Stably expressed in U87 cells by lentivirus; also called LZTR1-FLAG-R810W; LZTR1 RW; not shown: FLAG tag
binds: CRYBG1 | HECTD3 | PPFIBP1
